Target: human N-type calcium channel (human) (UniProt Q00975)
Assay: cell-based or functional assay

Chain of human N-type calcium channel (human) (Q00975 whole entry): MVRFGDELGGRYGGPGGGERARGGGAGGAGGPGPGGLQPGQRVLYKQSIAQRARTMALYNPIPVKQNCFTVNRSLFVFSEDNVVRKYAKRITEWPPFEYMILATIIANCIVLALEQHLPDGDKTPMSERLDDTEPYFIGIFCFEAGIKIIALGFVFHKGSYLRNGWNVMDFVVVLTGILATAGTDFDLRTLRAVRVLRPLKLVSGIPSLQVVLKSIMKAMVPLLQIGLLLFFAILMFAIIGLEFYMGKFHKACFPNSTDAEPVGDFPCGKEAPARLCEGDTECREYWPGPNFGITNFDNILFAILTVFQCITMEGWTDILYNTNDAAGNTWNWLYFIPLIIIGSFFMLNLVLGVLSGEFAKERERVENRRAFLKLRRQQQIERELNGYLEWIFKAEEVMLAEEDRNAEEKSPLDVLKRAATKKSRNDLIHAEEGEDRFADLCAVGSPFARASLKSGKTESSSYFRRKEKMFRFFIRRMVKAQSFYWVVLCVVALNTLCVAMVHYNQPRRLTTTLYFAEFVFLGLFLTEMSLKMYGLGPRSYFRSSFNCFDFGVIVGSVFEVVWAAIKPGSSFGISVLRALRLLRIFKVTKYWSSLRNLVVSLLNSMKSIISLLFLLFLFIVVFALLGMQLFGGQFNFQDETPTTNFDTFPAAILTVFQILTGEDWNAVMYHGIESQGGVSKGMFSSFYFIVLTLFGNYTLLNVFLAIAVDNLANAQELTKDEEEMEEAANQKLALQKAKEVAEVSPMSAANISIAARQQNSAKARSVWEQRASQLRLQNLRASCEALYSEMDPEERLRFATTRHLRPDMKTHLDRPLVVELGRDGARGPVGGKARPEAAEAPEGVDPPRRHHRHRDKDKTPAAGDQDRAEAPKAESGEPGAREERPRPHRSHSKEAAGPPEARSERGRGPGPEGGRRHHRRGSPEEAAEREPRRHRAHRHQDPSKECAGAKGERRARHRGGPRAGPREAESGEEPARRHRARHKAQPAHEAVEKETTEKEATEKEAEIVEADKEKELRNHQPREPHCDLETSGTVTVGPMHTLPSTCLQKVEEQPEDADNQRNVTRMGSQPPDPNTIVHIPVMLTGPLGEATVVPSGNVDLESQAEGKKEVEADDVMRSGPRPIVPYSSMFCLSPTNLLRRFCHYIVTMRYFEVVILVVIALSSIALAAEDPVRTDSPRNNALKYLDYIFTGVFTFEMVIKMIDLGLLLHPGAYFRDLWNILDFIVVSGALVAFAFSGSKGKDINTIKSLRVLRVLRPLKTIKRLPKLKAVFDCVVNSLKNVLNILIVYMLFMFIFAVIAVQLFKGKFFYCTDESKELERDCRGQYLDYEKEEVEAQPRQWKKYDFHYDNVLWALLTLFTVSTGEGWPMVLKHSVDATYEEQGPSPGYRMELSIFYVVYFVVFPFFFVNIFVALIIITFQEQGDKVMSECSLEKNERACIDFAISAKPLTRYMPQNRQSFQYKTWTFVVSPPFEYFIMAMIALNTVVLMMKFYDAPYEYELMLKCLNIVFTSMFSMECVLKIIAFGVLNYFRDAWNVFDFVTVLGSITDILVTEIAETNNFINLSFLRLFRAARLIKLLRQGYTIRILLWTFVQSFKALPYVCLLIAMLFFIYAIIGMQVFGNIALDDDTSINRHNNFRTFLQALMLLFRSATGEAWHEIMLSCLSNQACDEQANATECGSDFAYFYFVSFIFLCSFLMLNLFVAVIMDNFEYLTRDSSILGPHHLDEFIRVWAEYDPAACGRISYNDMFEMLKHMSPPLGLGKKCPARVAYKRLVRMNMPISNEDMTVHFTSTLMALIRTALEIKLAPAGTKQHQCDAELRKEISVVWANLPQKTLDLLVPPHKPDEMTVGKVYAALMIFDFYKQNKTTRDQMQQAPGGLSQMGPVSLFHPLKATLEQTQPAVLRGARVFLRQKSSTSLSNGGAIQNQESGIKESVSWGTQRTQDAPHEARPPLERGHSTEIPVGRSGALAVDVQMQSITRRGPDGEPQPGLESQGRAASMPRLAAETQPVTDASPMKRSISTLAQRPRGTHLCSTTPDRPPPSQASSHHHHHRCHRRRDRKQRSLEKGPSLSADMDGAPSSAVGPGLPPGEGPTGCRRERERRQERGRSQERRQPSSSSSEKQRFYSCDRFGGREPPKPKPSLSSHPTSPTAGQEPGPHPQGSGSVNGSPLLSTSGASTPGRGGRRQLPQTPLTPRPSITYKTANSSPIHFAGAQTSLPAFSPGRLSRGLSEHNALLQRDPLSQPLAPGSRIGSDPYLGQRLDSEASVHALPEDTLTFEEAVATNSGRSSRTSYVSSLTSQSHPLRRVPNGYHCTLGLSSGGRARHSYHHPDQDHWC

| Substance | IC50 of dose-inhibition curve, whole-cell patch clamp of N-type Ca2+ current | recovery after washout (FIG. 5) |
| --- | --- | --- |
| ω-conotoxin MVIIA (peptide) | 7.96 nM | 35% |
| ω-conotoxin FVIA (peptide) | 11.5 nM | 75% |

Source: patent publication US20100056456A1
